According to US20260034230A1 (Regeneron, published 2026):

Key:
[1] = biological target: T1, REGN2431 (hmm.hTfRC): monomeric human Tfrc ectodomain (C89-F760) with N-terminal hexahistidine-myc-myc tag (human, UniProt P02786 89-760); assay: SPR Biacore, IgG captured by anti-hFc, 25 C
T1 construct: also called hmm.hTfR(C89-F763); hTFR-mmh
Procedure: (§1) Biacore binding kinetics assays were conducted for the interaction of 32 anti-human TfR IgG1 monoclonal antibodies from CHO supernatants with TfR reagents at 25° C.
(§2) Equilibrium dissociation constants (KD) for the interaction of anti-TfR monoclonal antibodies with human and fascicularis monkey TfR ecto domain recombinant proteins were determined using a real-time surface plasmon resonance (SPR) based Biacore S200 biosensor. All binding studies were performed in 10 mM HEPES, 150 mM NaCl, 3 mM EDTA, and 0.05% v/v surfactant Tween-20, pH 7.4 (HBS-EP) running buffer at […]. The Biacore CM5 sensor surface was first derivatized by amine coupling with a monoclonal mouse anti-human Fc antibody (REGN2567) followed by a step to capture anti-TfR monoclonal antibodies in CHO conditioned media. […] The dissociation of TfR bound to anti-TfR monoclonal antibodies was monitored for 3 minutes in HBS-EP running buffer. At the end of each cycle, the anti-TfR monoclonal antibodies capture surface was regenerated using a 12-see injection of 20 mM H₃PO₄. The association rate (ka) and dissociation rate (kd) were determined by fitting the real-time binding sensorgrams to a 1:1 binding model with mass transport limitation using Scrubber 2.0c software. The dissociation equilibrium constant (KD) and dissociative half-life (t %) were calculated from the kinetic rate constants as: […]

[2] = biological target: T2, REGN2054 (mf TFRC ecto-mmh): monomeric monkey (cyno) Tfrc ectodomain (C89-F760) with C-terminal … (monkey (cyno, Macaca fascicularis), UniProt H9EXL1 89-760); assay: SPR Biacore, IgG captured by anti-hFc, 25 C
T2 construct: range 89-760; also called mfTFR-mmh; mfTfR-mmh
T2 sequence (chain, as listed by the source): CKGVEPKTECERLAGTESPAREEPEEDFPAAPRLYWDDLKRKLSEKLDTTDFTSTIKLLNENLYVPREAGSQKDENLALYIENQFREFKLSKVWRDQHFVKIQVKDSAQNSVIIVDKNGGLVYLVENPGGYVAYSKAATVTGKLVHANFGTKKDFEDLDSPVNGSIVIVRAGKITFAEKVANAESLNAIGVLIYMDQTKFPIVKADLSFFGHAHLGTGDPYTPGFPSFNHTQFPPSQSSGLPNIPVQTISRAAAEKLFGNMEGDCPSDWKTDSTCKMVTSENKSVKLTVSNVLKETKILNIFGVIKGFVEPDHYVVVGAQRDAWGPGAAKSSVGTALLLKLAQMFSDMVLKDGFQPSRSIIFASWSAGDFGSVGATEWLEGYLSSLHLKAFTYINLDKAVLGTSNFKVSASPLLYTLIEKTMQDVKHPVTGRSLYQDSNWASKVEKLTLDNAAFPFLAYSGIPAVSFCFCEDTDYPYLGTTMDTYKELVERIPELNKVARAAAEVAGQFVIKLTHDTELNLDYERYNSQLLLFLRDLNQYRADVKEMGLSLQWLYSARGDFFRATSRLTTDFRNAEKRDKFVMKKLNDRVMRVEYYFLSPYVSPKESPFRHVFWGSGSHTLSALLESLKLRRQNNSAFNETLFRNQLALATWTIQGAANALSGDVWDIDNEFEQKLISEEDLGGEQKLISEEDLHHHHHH
Procedure: as §1, §2

T1 sequence (P02786 other isoform, or with tags, fused parts or gaps): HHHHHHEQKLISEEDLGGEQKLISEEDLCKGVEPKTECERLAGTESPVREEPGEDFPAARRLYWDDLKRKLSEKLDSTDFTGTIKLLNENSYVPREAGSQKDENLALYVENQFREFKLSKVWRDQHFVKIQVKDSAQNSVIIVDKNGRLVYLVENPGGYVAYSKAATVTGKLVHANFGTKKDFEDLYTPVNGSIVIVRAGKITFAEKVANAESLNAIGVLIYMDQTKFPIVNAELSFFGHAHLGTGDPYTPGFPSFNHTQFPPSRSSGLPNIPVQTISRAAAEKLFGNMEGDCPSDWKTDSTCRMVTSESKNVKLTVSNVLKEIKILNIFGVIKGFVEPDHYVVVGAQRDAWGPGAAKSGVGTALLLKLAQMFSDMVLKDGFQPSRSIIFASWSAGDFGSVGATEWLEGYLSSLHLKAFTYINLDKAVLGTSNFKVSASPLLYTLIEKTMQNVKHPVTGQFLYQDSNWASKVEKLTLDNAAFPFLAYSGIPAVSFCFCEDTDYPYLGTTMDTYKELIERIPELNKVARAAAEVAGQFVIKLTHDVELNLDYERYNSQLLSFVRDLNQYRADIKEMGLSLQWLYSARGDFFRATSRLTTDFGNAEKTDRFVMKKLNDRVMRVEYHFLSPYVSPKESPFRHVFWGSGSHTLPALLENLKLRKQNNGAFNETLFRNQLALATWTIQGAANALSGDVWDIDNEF

Binder	t1/2 [1]	t1/2 [2]
12850B anti-hTfR monoclonal antibody (bivalent IgG1) (antibody, V domains shown, hIgG1/kappa; also called H1H12850B; REGN17516) VH: QVQLVQSGAEVKKPGSSVKVSCKASGGTFNTYAITWVRQAPGQGLEWMGGIIPISGIAEYAQKFQGRVTITTDDSSTTAYMELNSLRSEDTAVYYCASWNYALYYFYGMDVWGRGTTVTVSS VL: not shown	657 min	7.3 min
12834B anti-hTfR monoclonal antibody (bivalent IgG1) (antibody, V domains shown, hIgG1/kappa) VH: QVQLVQSGAEVKKPGASVKVSCKASGYTFTSYGISWVRQAPGQGLEWMGWISVYHGNTNYAQKFQGRVTMTTDTSTSTAYMELRSLRSDDTAVYYCAREGYYDFWSGYYPFDYWGQGTLVTVSS VL: not shown	2.6 min	
69307 anti-hTfR monoclonal antibody (bivalent IgG1) (antibody, V domains shown, hIgG1/kappa) VH: EVQLVESGGGLVQPGGSLRLSCTASGFTFSNYWMTWVRQAPGKGLEWVANIKEDGSEKEYVDSVKGRFTISRDNAKNSLYLQMNSLRGEDTAVYYCARDGEQLVDYYYYYVMDVWGQGTTVTVSS VL: DIQMTQSPSSVSASVGDRVTITCRASQGISSWLAWYQQKPGKAPKLLIYAASSLQSGVPSRFSGSGSGTDFTLTISSLQPEDFATYYCQKADSLPYAFGQGTKLEIKR	271 min	
12812B anti-hTfR monoclonal antibody (bivalent IgG1) (antibody, V domains shown, hIgG1/kappa; also called H1H12812B; REGN17708) VH: QVQLVQSGAEVKKPGSSVRVSCKASRGTFSSYAISWVRQAPGQGLEWMGGIIPIFGTANYAQKFLARVTITADESTSTAYMELSSLRSEDTAVYYCAREKGWNYFDYWGQGTLVTVSS VL: DIQMTQSPPSVSASVGDRVTITCRASQGISSWLAWYQQKPGKAPKLLIYAASSLQSGVPSRFSGSGSGTDFTLTISSLQPEDFATYYCQQANSFPRTFGQGTKVEIKR	8.8 min	
31863B anti-hTfR monoclonal antibody (bivalent IgG1) (antibody, V domains shown, hIgG1/kappa) VH: EVQLVESGGGLVQPGGSLRLSCAASGFTFNSYAMTWVRQAPGKGLEWVSFIGGSTGNTYYAGSVKGRFTISSDNSKKTLYLQMNSLRAEDTAVYYCAKGGAARRMEYFQHWGQGTLVTVSS VL: DIQMTQSPSSLSASIGDRVTITCRASQGISNYLAWYQQKPGKVPKLLIYAASTLQSGVPSRFSGSGSGTDFTLTISSLQPEDVATYYCQNHNSVPLTFGGGTKVEIKR	> 1160 min	3.9 min
31874B anti-hTfR monoclonal antibody (bivalent IgG1) (antibody, V domains shown, hIgG1/kappa; also called H1H31874B; REGN17517) VH: EVQLVESGGGLVQPGGSLRLSCAASGFAFSSYAMTWVRQAPGKGLEWVSVISGTGGSTYYADSVKGRFTISRDNSKNTLYLQMNSLRAEDTAVYYCAKGGAARRMEYFQYWGQGTLVTVSS VL: DIQMTQSPSSLSASVGDRVTITCRASQGISNYLAWYQQKPGKVPNLLIYAASTLQSGVPSRFSGSGSGTDFTLTISSLQPEDVATYYCQKYNSAPLTFGGGTKVEIKR	100 min	1.2 min
12845B anti-hTfR monoclonal antibody (bivalent IgG1) (antibody, V domains shown, hIgG1/kappa; also called H1H12845B; REGN17513) VH: EVQLVESGGGLVQPGGSLRLSCAASGFTVSNYEMNWVRQAPGKGLEWVSYISSSTSNIYYADSVKGRFTISRDNAENSLYLQMNSLRVEDTAVYYCVRDGIVVVPVGRGYYYYGLDVWGQGTTVTVSS VL: not shown	57.9 min	
12841B anti-hTfR monoclonal antibody (bivalent IgG1) (antibody, V domains shown, hIgG1/kappa; also called H1H12841B; REGN17511) VH: EVQLVESGGGLVQPGGSLRLSCAASGFTFSNYWMNWVRQAPGKGLEWVANIKEDGGKKLYVDSVKGRFTISRDNAKNSLFLQMNSLRAEDTAVYYCAREDTTLVVDYYYYGMDVWGQGTTVTVSS VL: not shown	99.8 min	
12816B anti-hTfR monoclonal antibody (bivalent IgG1) (antibody, V domains shown, hIgG1/kappa) VH: QVQLVESGGGLVKPGGSLRLSCAASGFTFSDYYMNWIRQAPGKGLEWVSYISSSGTTIYYADSVKGRFTISRDNAKKSLYLEMNSLRAEDTAVYYCAREGYGNDYYYYGIDVWGQGTTVTVSS VL: not shown	34.3 min	23.8 min
12833B anti-hTfR monoclonal antibody (bivalent IgG1) (antibody, V domains shown, hIgG1/kappa) VH: QVQLVESGGGVVQPGRSLRLSCAASGFTFSSFGMHWVRQAPGKGLEWVIFISYDGSDKYYADSVKGRFAISRDSSKNTLYLQMNSLRAEDTAVYYCAKENGILTDSYGMDVWGQGTTVTVSS VL: not shown	45.9 min	23.8 min
12839B anti-hTfR monoclonal antibody (bivalent IgG1) (antibody, V domains shown, hIgG1/kappa; also called H1H12839B; REGN17510) VH: QVQLVESGGGVVQPGRSLRLSCAASGFPFSNYVMYWVRQAPGKGLEWVALIFFDGKKNYHADSVKGRFTITRDNSKNMLYLQMNSLRPEDAAVYYCAKIHCPNGVCYKGYYGMDVWGQGTTVTVSS VL: not shown	217 min	

More lines, now with the values ahead:

t1/2 [1]	t1/2 [2]	Binder
45.1 min		69326 anti-hTfR monoclonal antibody (bivalent IgG1) (antibody, V domains shown, hIgG1/kappa) VH: EVQLVESGGGLVQPGGSLRLSCAVSGFIFSSYEMNWVRQAPGKGLEWVSYISSSGSTIFYADSVKGRFTISRDNAKNSLYLQMNSLRAEDTAVYYCVSGVVLFDVWGQGTMVTVSS VL: EIVMTQSPATLSVSPGERATLSCRASQSVSSNFAWYQQKPGQAPRLLIYSASSRATGIPVRFSGSGSGTEFTLTISSLQSEDFAVYYCQQYNIWPRTFGQGTKVEIKR
62.2 min		69329 anti-hTfR monoclonal antibody (bivalent IgG1) (antibody, V domains shown, hIgG1/kappa) VH: EVQLVESGGGLVQPGGSLRLSCAASGFTFSNYWMTWVRQAPGKGLEWVANIKEDGSEKDYVDSVKGRFTISRDNAKNSLYLQMNSLRGEDTAVYYCARDGEQLVDYYYYYVMDVWGQGTTVTVSS VL: DIQMTQSPSSVSASVGDRVTITCRASQGISSWLAWYQQKPGKAPKLLIYAASSLQSGVPSRFSGSGSGTDFTLTISSLQPEDFATYYCQKANSFPYTFGQGTKLEIKR
2.5 min	1.2 min	69331 anti-hTfR monoclonal antibody (bivalent IgG1) (antibody, V domains shown, hIgG1/kappa) VH: QVQLVESGGGVVQPGRSLRLSCIASGFTFSVYGIHWVRQAPGKGLEWMAVISHDGNIKHYADSVKGRFTISRDNSKNTLYLQINSLRTEDTAVYYCAKDTWNSLDTFDIWGQGTMVTVSS VL: DIQLTQSPSSLSASVGDRVTITCWASQGISSYLAWYQQKPGKAPKLLIYAASTLQSGVPSRFSGSGSGTEFTLTISSLQPEDFATYYCQQLNSYPLTFGGGTKVEIKR
10 min	3.1 min	69263 anti-hTfR monoclonal antibody (bivalent IgG1) (antibody, V domains shown, hIgG1/kappa) VH: EVQLVESGGGLVQPGRSLRLSCAVSGFTFDDYAMHWVRQAPGKGLEWVSGISWNSGTRGYADSVKGRFTISRDNAKNSLYLQMNSLRGEDTALYYCVKDITISPNYYGMDVWGQGTTVTVSS VL: DIQMTQSPSSLSASVGDRVTITCRASQDISHYSAWYQQKPGKLPNLLIYAASTLQSGVPSRFSGSGSGTDFSLTTSSLQPEDVATYYCQKYNSVPLTFGGGTKVEIKR
64.1 min	1.1 min	69323 anti-hTfR monoclonal antibody (bivalent IgG1) (antibody, V domains shown, hIgG1/kappa) VH: EVQLVESGGGLVQPGRSLRLSCAASGFTFDDYAMHWVRQAPGKGLEWVSGISWNSGYIGYADSVKGRFTISRDNAENSLHLQMNSLRAEDTALYYCARGGSTLVRGVKGGYYGMDVWGQGTTVTVSS VL: not shown
185 min	16 min	69340 anti-hTfR monoclonal antibody (bivalent IgG1) (antibody, V domains shown, hIgG1/kappa) VH: EVQLVESGGGLVQPGRSLRLSCAASGFTFDDKAMHWVRQVPGKGLEWISGISWNSGTIGYADSVKGRFIISRDNAKNSLYLQMNSLRAEDTALYYCAKDGDTSGWYWYGLDVWGQGTTVTVSS VL: EIVLTQSPATLSLSPGERATLSCRASQSVSSYLAWYQQKPGQAPRLLIHDVSNRATGIPARFSGSGSGTDFTLTISSLEPEDFVVYYCQQRSDWPITFGQGTRLEIKR
143 min	28.7 min	69261 anti-hTfR monoclonal antibody (bivalent IgG1) (antibody, V domains shown, hIgG1/kappa) VH: QVQLVESGGGLVKPGGSLRLSCAASGFTFSVYYMNWIRQAPGKGLEWVSYISSSGSTIYYADSVKGRFTISRDNAKNSLYLQMNSLRAEDTAVYYCGREGYSGTYSYYGMDVWGQGTTVTVSS VL: not shown
